Target: T1, reporter peptide (Example 9, TEV) (not fully specified)
T1 chain: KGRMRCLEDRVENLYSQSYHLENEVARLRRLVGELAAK

B1: TEV (Tobacco Etch Virus) protease (protein)
chain: GESLFKGPRDYNPISSTICHLTNESDGHTTSLYGIGFGPFIITNKHLFRRNNGTLLVQSLHGVFKVKNTTTLQQHLIDGRDMIIIRMPKDFPPFPQKLKFREPQREERICLVTTNFQTKSMSSMVSDTSCTFPSSDGIFWKHWIQTKDGQCGSPLVSTRDGFIVGIHSASNFTNTNNYFTSVPKNFMELLTNQEAQQWVSGWRLNADSVLWGGHKVFMSKPEEPFQPVKEATQLMNELVYSQ
Km of TEV protease by FP analysis: 36 µM
Km of TEV protease by FRET analysis: 36 µM

Source: patent US6828106
